From patent publication US20110142868A1 (CHIRALIX B V, published 2011)
Numbered stars: 1 amine (or outer) side, 2 acyl side, 3 side chain; on linkers, the order of the positions; unused ones are H or OH. Square brackets hold non-standard residues; d marks the D form. Orn(CA) = ornithine chloroamidine, O(CA), N=C(CCl)NCCC[C@H](N[*:1])C(=O)[*:2]; Orn(fluoroacetimidoyl) = N=C(CF)NCCC[C@H](N)C(=O)O

Assays:
[1] = target: recombinant human PAD2 (human, UniProt Q9Y2J8 1-665); assay: cell-based or functional assay
recombinant human PAD2, sequence (Q9Y2J8 whole entry): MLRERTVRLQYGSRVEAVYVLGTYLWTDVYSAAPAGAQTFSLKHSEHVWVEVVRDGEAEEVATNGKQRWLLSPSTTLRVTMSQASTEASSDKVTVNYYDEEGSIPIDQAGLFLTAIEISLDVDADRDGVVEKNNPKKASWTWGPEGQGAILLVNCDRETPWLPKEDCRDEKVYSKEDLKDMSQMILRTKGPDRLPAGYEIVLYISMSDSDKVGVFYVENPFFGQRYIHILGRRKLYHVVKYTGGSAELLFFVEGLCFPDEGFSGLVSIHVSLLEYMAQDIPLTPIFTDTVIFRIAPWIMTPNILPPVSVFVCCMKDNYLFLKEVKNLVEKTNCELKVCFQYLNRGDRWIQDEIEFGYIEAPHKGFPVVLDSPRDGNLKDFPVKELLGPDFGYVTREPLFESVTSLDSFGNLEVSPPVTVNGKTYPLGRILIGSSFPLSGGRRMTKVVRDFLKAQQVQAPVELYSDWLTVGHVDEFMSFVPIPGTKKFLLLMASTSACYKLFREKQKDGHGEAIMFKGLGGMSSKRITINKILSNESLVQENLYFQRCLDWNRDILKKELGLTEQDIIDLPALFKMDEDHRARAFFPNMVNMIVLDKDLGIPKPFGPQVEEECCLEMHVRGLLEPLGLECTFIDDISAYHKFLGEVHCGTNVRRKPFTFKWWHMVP

[2] = target: recombinant human PAD4 (human, UniProt Q9UM07 1-663); assay: cell-based or functional assay
recombinant human PAD4, sequence (Q9UM07 whole entry): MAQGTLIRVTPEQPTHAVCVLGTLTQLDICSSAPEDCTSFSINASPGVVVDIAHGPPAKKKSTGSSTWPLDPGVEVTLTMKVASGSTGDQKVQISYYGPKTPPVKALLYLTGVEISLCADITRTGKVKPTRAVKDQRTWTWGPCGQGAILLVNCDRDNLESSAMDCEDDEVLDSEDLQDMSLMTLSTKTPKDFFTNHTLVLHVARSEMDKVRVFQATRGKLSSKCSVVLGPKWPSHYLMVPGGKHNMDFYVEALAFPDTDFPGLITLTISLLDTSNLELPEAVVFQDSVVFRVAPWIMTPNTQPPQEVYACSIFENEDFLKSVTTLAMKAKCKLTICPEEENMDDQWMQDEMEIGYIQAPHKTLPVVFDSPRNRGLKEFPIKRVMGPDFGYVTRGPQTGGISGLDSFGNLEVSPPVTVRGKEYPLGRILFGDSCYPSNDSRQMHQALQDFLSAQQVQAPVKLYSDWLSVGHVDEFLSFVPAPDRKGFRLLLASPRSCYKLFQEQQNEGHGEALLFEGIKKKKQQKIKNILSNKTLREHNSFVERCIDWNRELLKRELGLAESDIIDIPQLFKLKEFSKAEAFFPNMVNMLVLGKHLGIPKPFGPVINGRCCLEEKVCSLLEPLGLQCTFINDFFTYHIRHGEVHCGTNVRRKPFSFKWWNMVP

Row | Binder | conversion of 0708-30 by PAD2, 10 µM inhibitor [1] [%] | conversion of 0708-30 by PAD2, 50 µM inhibitor [1] [%] | conversion of 0708-30 by PAD2, 100 µM inhibitor [1] [%] | conversion of 0708-30 by PAD4, 10 µM inhibitor [2] [%] | conversion of 0708-30 by PAD4, 50 µM inhibitor [2] [%] | conversion of 0708-30 by PAD4, 100 µM inhibitor [2] [%]
1 | Ac-DSKKHD[Orn(fluoroacetimidoyl)]DFLYSD-NH2 (SMILES CC(=O)N[C@@H](CC(=O)O)C(=O)N[C@@H](CO)C(=O)N[C@@H](CCCCN)C(=O)N[C@@H](CCCCN)C(=O)N[C@@H](Cc1c[nH]cn1)C(=O)N[C@@H](CC(=O)O)C(=O)N[C@@H](CCCNC(=N)CF)C(=O)N[C@@H](CC(=O)O)C(=O)N[C@@H](Cc1ccccc1)C(=O)N[C@@H](CC(C)C)C(=O)N[C@@H](Cc1ccc(O)cc1)C(=O)N[C@@H](CO)C(=O)N[C@@H](CC(=O)O)C(N)=O) [0741-06FA] | 73 | 42 | 25 | 74 | 43 | 27
2 | Ac-FFDSKHFD[Orn(CA)]EWIWSD-NH2 (SMILES CC[C@H](C)[C@H](NC(=O)[C@H](Cc1c[nH]c2ccccc12)NC(=O)[C@H](CCC(=O)O)NC(=O)[C@H](CCCNC(=N)CCl)NC(=O)[C@H](CC(=O)O)NC(=O)[C@H](Cc1ccccc1)NC(=O)[C@H](Cc1c[nH]cn1)NC(=O)[C@H](CCCCN)NC(=O)[C@H](CO)NC(=O)[C@H](CC(=O)O)NC(=O)[C@H](Cc1ccccc1)NC(=O)[C@H](Cc1ccccc1)NC(C)=O)C(=O)N[C@@H](Cc1c[nH]c2ccccc12)C(=O)N[C@@H](CO)C(=O)N[C@@H](CC(=O)O)C(N)=O) [0741-01CA] | 69 | 38 | 23 | 63 | 31 | 17
3 | Ac-FFDSHKWH[Orn(CA)]DFFYSD-NH2 (SMILES CC(=O)N[C@@H](Cc1ccccc1)C(=O)N[C@@H](Cc1ccccc1)C(=O)N[C@@H](CC(=O)O)C(=O)N[C@@H](CO)C(=O)N[C@@H](Cc1c[nH]cn1)C(=O)N[C@@H](CCCCN)C(=O)N[C@@H](Cc1c[nH]c2ccccc12)C(=O)N[C@@H](Cc1c[nH]cn1)C(=O)N[C@@H](CCCNC(=N)CCl)C(=O)N[C@@H](CC(=O)O)C(=O)N[C@@H](Cc1ccccc1)C(=O)N[C@@H](Cc1ccccc1)C(=O)N[C@@H](Cc1ccc(O)cc1)C(=O)N[C@@H](CO)C(=O)N[C@@H](CC(=O)O)C(N)=O) [0741-02CA] | 67 | 32 | 18 | 63 | 31 | 19
4 | Ac-FFDSHKFD[Orn(CA)]DFIYSD-NH2 (SMILES CC[C@H](C)[C@H](NC(=O)[C@H](Cc1ccccc1)NC(=O)[C@H](CC(=O)O)NC(=O)[C@H](CCCNC(=N)CCl)NC(=O)[C@H](CC(=O)O)NC(=O)[C@H](Cc1ccccc1)NC(=O)[C@H](CCCCN)NC(=O)[C@H](Cc1c[nH]cn1)NC(=O)[C@H](CO)NC(=O)[C@H](CC(=O)O)NC(=O)[C@H](Cc1ccccc1)NC(=O)[C@H](Cc1ccccc1)NC(C)=O)C(=O)N[C@@H](Cc1ccc(O)cc1)C(=O)N[C@@H](CO)C(=O)N[C@@H](CC(=O)O)C(N)=O) [0741-03CA] | 57 | 49 | 23 | 62 | 24 | 14
5 | Ac-FFDSHKLH[Orn(fluoroacetimidoyl)]EWMWSD-NH2 (SMILES CSCC[C@H](NC(=O)[C@H](Cc1c[nH]c2ccccc12)NC(=O)[C@H](CCC(=O)O)NC(=O)[C@H](CCCNC(=N)CF)NC(=O)[C@H](Cc1c[nH]cn1)NC(=O)[C@H](CC(C)C)NC(=O)[C@H](CCCCN)NC(=O)[C@H](Cc1c[nH]cn1)NC(=O)[C@H](CO)NC(=O)[C@H](CC(=O)O)NC(=O)[C@H](Cc1ccccc1)NC(=O)[C@H](Cc1ccccc1)NC(C)=O)C(=O)N[C@@H](Cc1c[nH]c2ccccc12)C(=O)N[C@@H](CO)C(=O)N[C@@H](CC(=O)O)C(N)=O) [0741-04FA] | 62 | 24 | 14 | 64 | 28 | 14
6 | Ac-FFDSHKLH[Orn(CA)]EWMWSD-NH2 (SMILES CSCC[C@H](NC(=O)[C@H](Cc1c[nH]c2ccccc12)NC(=O)[C@H](CCC(=O)O)NC(=O)[C@H](CCCNC(=N)CCl)NC(=O)[C@H](Cc1c[nH]cn1)NC(=O)[C@H](CC(C)C)NC(=O)[C@H](CCCCN)NC(=O)[C@H](Cc1c[nH]cn1)NC(=O)[C@H](CO)NC(=O)[C@H](CC(=O)O)NC(=O)[C@H](Cc1ccccc1)NC(=O)[C@H](Cc1ccccc1)NC(C)=O)C(=O)N[C@@H](Cc1c[nH]c2ccccc12)C(=O)N[C@@H](CO)C(=O)N[C@@H](CC(=O)O)C(N)=O) [0741-04CA] | 69 | 47 | 50 | 68 | 55 | 26
7 | Ac-DSHKFD[Orn(fluoroacetimidoyl)]DFIYSD-NH2 (SMILES CC[C@H](C)[C@H](NC(=O)[C@H](Cc1ccccc1)NC(=O)[C@H](CC(=O)O)NC(=O)[C@H](CCCNC(=N)CF)NC(=O)[C@H](CC(=O)O)NC(=O)[C@H](Cc1ccccc1)NC(=O)[C@H](CCCCN)NC(=O)[C@H](Cc1c[nH]cn1)NC(=O)[C@H](CO)NC(=O)[C@H](CC(=O)O)NC(C)=O)C(=O)N[C@@H](Cc1ccc(O)cc1)C(=O)N[C@@H](CO)C(=O)N[C@@H](CC(=O)O)C(N)=O) [0741-05FA] | 54 | 24 | 15 | 55 | 22 | 14
8 | Ac-DSHKFD[Orn(CA)]DFIYSD-NH2 (SMILES CC[C@H](C)[C@H](NC(=O)[C@H](Cc1ccccc1)NC(=O)[C@H](CC(=O)O)NC(=O)[C@H](CCCNC(=N)CCl)NC(=O)[C@H](CC(=O)O)NC(=O)[C@H](Cc1ccccc1)NC(=O)[C@H](CCCCN)NC(=O)[C@H](Cc1c[nH]cn1)NC(=O)[C@H](CO)NC(=O)[C@H](CC(=O)O)NC(C)=O)C(=O)N[C@@H](Cc1ccc(O)cc1)C(=O)N[C@@H](CO)C(=O)N[C@@H](CC(=O)O)C(N)=O) [0741-05CA] | 62 | 44 | 31 | 74 | 34 | 25
9 | Ac-DSKKHD[Orn(CA)]DFLYSD-NH2 (SMILES CC(=O)N[C@@H](CC(=O)O)C(=O)N[C@@H](CO)C(=O)N[C@@H](CCCCN)C(=O)N[C@@H](CCCCN)C(=O)N[C@@H](Cc1c[nH]cn1)C(=O)N[C@@H](CC(=O)O)C(=O)N[C@@H](CCCNC(=N)CCl)C(=O)N[C@@H](CC(=O)O)C(=O)N[C@@H](Cc1ccccc1)C(=O)N[C@@H](CC(C)C)C(=O)N[C@@H](Cc1ccc(O)cc1)C(=O)N[C@@H](CO)C(=O)N[C@@H](CC(=O)O)C(N)=O) [0741-06CA] | 63 | 45 | 48 | 74 | 64 | 50
10 | Ac-FFDSKHFD[Orn(fluoroacetimidoyl)]EWIWSD-NH2 (SMILES CC[C@H](C)[C@H](NC(=O)[C@H](Cc1c[nH]c2ccccc12)NC(=O)[C@H](CCC(=O)O)NC(=O)[C@H](CCCNC(=N)CF)NC(=O)[C@H](CC(=O)O)NC(=O)[C@H](Cc1ccccc1)NC(=O)[C@H](Cc1c[nH]cn1)NC(=O)[C@H](CCCCN)NC(=O)[C@H](CO)NC(=O)[C@H](CC(=O)O)NC(=O)[C@H](Cc1ccccc1)NC(=O)[C@H](Cc1ccccc1)NC(C)=O)C(=O)N[C@@H](Cc1c[nH]c2ccccc12)C(=O)N[C@@H](CO)C(=O)N[C@@H](CC(=O)O)C(N)=O) [0741-01FA] | 69 | 29 | 14 | 63 | 24 | 15
